Source: paper PMC4297295, “Structural Conservation Despite Huge Sequence Diversity Allows EPCR Binding by the PfEMP1 Family Implicated in Severe Childhood Malaria” (Cell Host & Microbe, 2015)

Biological target: T1, endothelial protein C receptor (EPCR), extracellular domain, biotinylated on the N-terminal BAP tag (human, UniProt Q9UNN8 18-210, biotin attached to the N-terminal BAP tag (BirA))
T1 construct: also called biotinylated recombinant EPCR; ECPR
T1 sequence: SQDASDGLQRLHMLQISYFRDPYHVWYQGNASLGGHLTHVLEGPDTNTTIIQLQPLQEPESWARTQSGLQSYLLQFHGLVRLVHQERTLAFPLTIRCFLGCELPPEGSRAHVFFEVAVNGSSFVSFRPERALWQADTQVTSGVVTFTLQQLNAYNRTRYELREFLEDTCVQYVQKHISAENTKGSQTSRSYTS
Assay: SPR
Details: both partners purified

| Binder | Kd [nM] | koff [s⁻¹] | kon [M⁻¹ s⁻¹] |
| --- | --- | --- | --- |
| CIDRα1.1 domain of PfEMP1 IT4var20 (domain or fragment, also called CIDRa1.1 IT4var20_IT4; IT4var20 (1.1)) PDCVVQCKGGKCTEDKKNDKCRSKIIKKILQSEEPTEIHVLNSDDKQGDITKKLEVFCSSTTNYEGRNVQKWKCYNKNSDYNNCEMNISSYKDSTDANVMLSVECFHSWAKNLLIDTIKWEHQLKNCINNTNVTYCESKCIKNCECYEKWIKRKEHEWEKVKNVFGNNNRMSYIYYNNLSRVFDSFLFQVMFALDQDEKGKWDQFTEDLKKKFEPSKTNTPTGKSQDAIEFLLDHLKDNALTCRDNNSNESCDVSKKVKTNPC | 0.37 | 0.000123 | 332000 |
| CIDRα1.1 domain of PfEMP1 RAJ116var08 (domain or fragment, also called CIDRa1.1 RAJ116var08_RAJ116; RAJ116var08 (1.1)) PDCVVDCTGGNCKENKKHDNCRSKIIEEILRSEETTDIDVLYSGKGPGAITKKLHDFCSNPNNYKRANVQKWKCYNKNKDYNNCEMNISSYKDATDPNVMLSVQCFYSWAQNLLIDIIRWEHQLKDCINNTNVTDCDNECNKNCECFEKWIKQKQKEWQQVKEVLKKKDENSHNYYNKLRSVFDSFLYQVMFALNNEEKGKWDQFTEDLEKKFESSKKSAGTGNSQDAIEFLLDHLNDNAITCKDNNSKESC | 1.4 | 3.85e-05 | 27900 |
| CIDRα1.1 domain GA011_ERS009959 (domain or fragment, also called CIDRa1.1 GA011_ERS009959; GA011 (1.1)) PDCVVYCEGGECKENENGDNCRSEIIKEIVRSETPTVIDVLYSGNGQDHITEKLDHFCSSTNKEDRKYYKTLKCYNKNNDYNKCEMISWLYQDPKESNLMLSIQCFYSWAQNLLIDTIRWEHQLKDCINNTNVTDCKSNCNKNCKCYKKWIEQKGSEWQQVKQVLKKKDKNSENYYDKLKDVFDTLYFEVMHELNKGKEKGKSEELTEDLKKKFGPSKKNTDAADSKDAIEFLLDHLNDNAITCKDNNSLAVENCTRTKSNPC | 182 | 7.24e-05 | 389 |
| CIDRα1.4 domain of PfEMP1 DD2var32 (domain or fragment, also called CIDRa1.4 DD2var32_DD2; DD2var32 (1.4)) PDCGVECNKGTCKKKPNDSNCRNNEAYIPPRDVTPTKINVLYSGDGHGDITKKLKGFCSNPTDYDGKNYENWQCYYKSSEDNKCQMTSLSQTLQKHHYVMSFYAFFDFWVRKFLIDTIKWENELKNCINNTTTDCSDGCNKHCVCFDKWVKQKEKEWNSIKKLFTKKNNVPQPYYTNINNLFDSFYFQVMYELNHDEAKWKELTQELRNKINSSKKNTDAADSKDAIELLLEYLKEKSTICKDNNTNEAC | 0.3 | 0.000343 | 1.06e+06 |
| CIDRα1.5a domain 1965-2 (patient isolate 1965) (domain or fragment) PDCGVECKNGRCKKKTDADGNCGKTQIYDIPKDVTPTDINVLYSGDEYGDIAKRLSEFCRDSKKENGKNTEIWHCYYIGDKHNQCKMEKAVAENKHQTKITTFDFFFDLWIKNLLRDTINWKSQLKNCINNTNKTNCNKTCNENCKCFENWVNQKEKEWNNMKELFKNKNRTSQNYYNKLKSHFDNYFFLVINNVNKGEAKWKKFTDELRNKIDSSKAKNGTSDSQDSIKMLLEHLKEDGTTCTANNPDSICNTPGTDARSLEPASKIEPQNKDTRTNPC | 54 | 0.00103 | 18900 |
| CIDRα1.5a domain GA013_ERS010323 (domain or fragment, also called CIDRa1.5a GA013_ERS010323; GA013 (1.5a)) PYCGVDCSNGTCKENGNDDNCGEQQNYNIPKGVDPTNINVLYSVDGHGDIAKRLSTFCNDKNNKNAKNNEIWQCYYIGHKNNQCKIEKSVSQKKHQTKIAPFDYFFDLWVTNLLRDNIDWKNELKNCINNKNTEKCNKECNDNCKCFQSWLNKKEDEWNKITGLLKNKNGILQNYYNKLKSHFDYYFFQVINNINKGEEKWKKLKEDLKKEIDFSKLKTNTGDSQDSIKLLLDHENKNAGTCLKNNPIDSCPKAEPQKSDEKVQPQDTPPNSC | 57 | 0.000832 | 14700 |
| CIDRα1.5b domain 1983-13 (patient isolate 1983) (domain or fragment) PDCGVECNGKTCTKKEETDENCGKPPNYTIPTDVTPTDINVLYSGDEQGYITKRLSEFCGPTKNYIGKKNELWKCYYDDKQKNNNNNNNICKLQPNAHIKNENIIINFDNFFEFWVRRFLNDTIDWKYDLNTCMNFTNTTKCNNNCNKNCKCFEQWVNIKKTEWKNVTEYFFKHDETSKKKYCEILKDIFENYYVEVIEKFYKGKHKWKERIEKLKNMDCSQVKIGTNASQDQIDIFLSNLKGDATQCTSKNPKSACNKPHAARIITRATTRNPC | 169000 | 0.00047 | 2.8 |
